Article PMC4643876, “Picomolar Inhibition of Plasmepsin V, an Essential Malaria Protease, Achieved Exploiting the Prime Region” (PLoS ONE, 2015)
Where two headings read alike, the source gives them in different places. Ends that are not written are not given here. * marks the point of attachment. Biotin = O=C1N[C@H]2[C@H](CS[C@H]2CCCCC(=O)*)N1; Octanoyl = CCCCCCCC(=O)*; GABA = NCCCC(=O)O

Columns and labels:
[1] = biological target: GFP-tagged Plasmepsin V (PmV-GFP), P. falciparum clone DC6 (Plasmodium falciparum)
GFP-tagged Plasmepsin V (PmV-GFP), P. falciparum clone DC6 (Plasmodium falciparum), sequence (Q8I6Z5 whole entry): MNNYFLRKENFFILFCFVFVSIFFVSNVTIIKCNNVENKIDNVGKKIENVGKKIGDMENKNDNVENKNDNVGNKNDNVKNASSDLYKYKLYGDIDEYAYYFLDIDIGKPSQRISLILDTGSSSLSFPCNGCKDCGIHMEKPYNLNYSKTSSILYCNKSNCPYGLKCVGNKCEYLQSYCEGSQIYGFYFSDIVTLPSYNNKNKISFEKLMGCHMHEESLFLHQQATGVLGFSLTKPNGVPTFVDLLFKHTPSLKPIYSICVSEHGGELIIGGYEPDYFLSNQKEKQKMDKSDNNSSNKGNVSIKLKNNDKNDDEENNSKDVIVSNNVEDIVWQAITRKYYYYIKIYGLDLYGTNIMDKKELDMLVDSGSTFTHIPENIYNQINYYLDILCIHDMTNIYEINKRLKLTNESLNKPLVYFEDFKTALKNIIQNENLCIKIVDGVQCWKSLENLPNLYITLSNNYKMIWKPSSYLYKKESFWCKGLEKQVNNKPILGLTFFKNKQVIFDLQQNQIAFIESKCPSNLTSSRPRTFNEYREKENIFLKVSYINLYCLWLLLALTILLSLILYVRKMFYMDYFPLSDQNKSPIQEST

[2] = biological target: GFP-tagged Plasmepsin V (PmV-GFP), P. falciparum clone DC6 (Plasmodium falciparum); remark: listed apart in the source
[3] = biological target: GFP-tagged Plasmepsin V (PmV-GFP), P. falciparum clone DC6 (Plasmodium falciparum); remark: listed apart in the source

B1: Compound 36, a biotinylated version of Compound 1 (peptide)
peptide: {Biotin-GABA-GABA}-RLLAEA
modifications: also: hydroxyethylamino (HEA) isostere replaces P1 Leu-P1' Ala peptide bond
[1]
  in vitro inhibitory activity (IC50) against PmV cleavage of the fluorogenic HRPII-PExEl substrate: 42 nM

B2: Compound 37b (R epimer of Compound 37) (peptide)
peptide: RLLYEA
[2]
  IC50 of inhibition of PmV cleavage of the fluorogenic HRPII-PExEl substrate: 1.57 nM

B3: Compound 37a (octanoyl group at the N-terminus of Compound 7a) (peptide)
peptide: Octanoyl-RLLYEA
modifications: not fully specified
[3]
  IC50 of inhibition of PmV cleavage of the fluorogenic HRPII-PExEl substrate: 0.023 nM

B4: Compound 8b (R epimer of Compound 8, glutamine in P2') (peptide)
peptide: RLLAQA
[2]
  IC50 of inhibition of PmV cleavage of the fluorogenic HRPII-PExEl substrate: 188 nM
